According to US20240252614A1 (Pfizer, published 2024):

How the values were obtained:
hMPV133 = molecular target: T1, hMPV133 (hMPV B, UniProt Q6WB98 19-102); assay: BLI, no stress
T1 construct: T49I, L141C-A161C, S149T, G239A, T411C-Q434C, A459P

hMPV135 = molecular target: T2, hMPV135 (hMPV B, UniProt Q6WB98 19-102); assay: BLI, no stress
T2 construct: T49I, S149T, A459P

hMPV B F WT Control = hMPV B F WT Control (hMPV B, UniProt Q6WB98 19-102); assay: BLI, 53C stress
Procedure: (§1) All measurements were conducted at 30° C. temperature in 96-well black plates (Corning, Corning, NY) with a final volume of 240 μL per well at a constant agitation rate of 1000 RPM.
(§2) Conformation integrity of hMPV B F protein mutants were evaluated by a thermal stress experiment. Crude cell culture supernatants were normalized based on the results of the titer quantitation and then incubated for 1 hour at room temperature and two higher temperatures. For the testing of hMPV B single mutants, the two temperatures were 53° C. and 56° C. After the incubation, the protein mutants were probed with prefusion specific monoclonal antibody hMPV-2 by OCTET HTX. Anti-Human IgG Fc Capture (AHC) biosensors were first equilibrated in PB before being dipped into more PB for to establish the initial baseline. Biosensors were incubated with hMPV-2 before being equilibrated in PB to establish the experimental baseline. The mAb-bound biosensors were then dipped into the thermal stresses cell culture supernatants for 5 minutes.

hMPV101 = molecular target: T3, hMPV101 (hMPV B, UniProt Q6WB98 19-102); assay: BLI, 53C stress
T3 construct: A140C-S149C
Procedure: as §1, §2

hMPV102 = molecular target: T4, hMPV102 (hMPV B, UniProt Q6WB98 19-102); assay: BLI, 53C stress
T4 construct: L141C-A161C
Procedure: as §1, §2

hMPV103 = molecular target: T5, hMPV103 (hMPV B, UniProt Q6WB98 19-102); assay: BLI, 53C stress
T5 construct: E146C-T160C
Procedure: as §1, §2

hMPV104 = molecular target: T6, hMPV104 (hMPV B, UniProt Q6WB98 19-102); assay: BLI, 53C stress
T6 construct: A459P
Procedure: as §1, §2

hMPV105 = molecular target: T7, hMPV105 (hMPV B, UniProt Q6WB98 19-102); assay: BLI, 53C stress
T7 construct: G239A
Procedure: as §1, §2

hMPV106 = molecular target: T8, hMPV106 (hMPV B, UniProt Q6WB98 19-102); assay: BLI, 53C stress
T8 construct: T49I
Procedure: as §1, §2

hMPV107 = molecular target: T9, hMPV107 (hMPV B, UniProt Q6WB98 19-102); assay: BLI, 53C stress
T9 construct: S149T
Procedure: as §1, §2

hMPV108 = molecular target: T10, hMPV108 (hMPV B, UniProt Q6WB98 19-102); assay: BLI, 53C stress
T10 construct: T365I
Procedure: as §1, §2

[1] = molecular target: T11, PIV1 F literature prefusion comparison (PIV1); assay: BLI, 53C stress;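 further: binding of thermally stressed PIV1 F mutant supernatant to mAb on AHC biosensors for 5 min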
T11 construct: F113G, F114S, A466I, S473I (Stewart-Jones et al. 2018)
Procedure: (§3) The OCTET HTX (Sartorius, Gottingen, Germany) instrument was used to evaluate the expression and conformational integrity for each mutant. All measurements were conducted at 30° C. temperature in 96-well black plates (Corning, Corning, NY) with a final volume of 240 μL per well at a constant agitation rate of 1000 RPM.
(§4) Conformation integrity of PIV1 F protein mutants were evaluated by a thermal stress experiment. Crude cell culture supernatants were normalized based on the results of the titer quantitation and then incubated for 1 hour at room temperature and two higher temperatures. For the initial testing of PIV1 mutants, the two temperatures were 50° C. and 53° C. […] Anti-Human IgG Fc Capture (AHC) biosensors were first equilibrated in PB for before being dipped into more PB to establish the initial baseline. […] The mAb-bound biosensors were then dipped into the thermal stresses cell culture supernatants for 5 minutes.

PIV1047 = molecular target: T12, PIV1047 (PIV1); assay: BLI, 53C stress;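 further: binding of thermally stressed PIV1 F mutant supernatant to mAb on AHC biosensors for 5 min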
T12 construct: F113G, F114S, Q92C-G134C, A466L, S473L, A480L
Procedure: as §3, §4

PIV1048 = molecular target: T13, PIV1048 (PIV1); assay: BLI, 53C stress;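 further: binding of thermally stressed PIV1 F mutant supernatant to mAb on AHC biosensors for 5 min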
T13 construct: Q92C-G134C, A466L, S473L, A480L
Procedure: as §3, §4

PIV1049 = molecular target: T14, PIV1049 (PIV1); assay: BLI, 53C stress;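 further: binding of thermally stressed PIV1 F mutant supernatant to mAb on AHC biosensors for 5 min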
T14 construct: Q92C-G134C, A466L, S473L
Procedure: as §3, §4

PIV1050 = molecular target: T15, PIV1050 (PIV1); assay: BLI, 53C stress
T15 construct: F113G, F114S, Q92C-G134C, A466V, S473V, A480V
Procedure: as §3, §4

PIV1051 = molecular target: T16, PIV1051 (PIV1); assay: BLI, 53C stress
T16 construct: Q92C-G134C, A466V, S473V, A480V
Procedure: as §3, §4

PIV1052 = molecular target: T17, PIV1052 (PIV1); assay: BLI, 53C stress
T17 construct: Q92C-G134C, A466V, S473V; also called PV1052
Procedure: as §3, §4

PIV1053 = molecular target: T18, PIV1053 (PIV1); assay: BLI, 53C stress
T18 construct: F113G, F114S, A466L, S473L, A480L, G134A
Procedure: as §3, §4

PIV1054 = molecular target: T19, PIV1054 (PIV1); assay: BLI, 53C stress
T19 construct: A466L, S473L, A480L, G134A
Procedure: as §3, §4

PIV1055 = molecular target: T20, PIV1055 (PIV1); assay: BLI, 53C stress
T20 construct: A466L, S473L, G134A
Procedure: as §3, §4

PIV1056 = molecular target: T21, PIV1056 (PIV1); assay: BLI, 53C stress
T21 construct: F113G, F114S, A466L, S473L, A480L, Q92A, G134A
Procedure: as §3, §4

PIV1057 = molecular target: T22, PIV1057 (PIV1); assay: BLI, 53C stress
T22 construct: A466L, S473L, A480L, Q92A, G134A
Procedure: as §3, §4

PIV1058 = molecular target: T23, PIV1058 (PIV1); assay: BLI, 53C stress
T23 construct: A466L, S473L, Q92A, G134A
Procedure: as §3, §4

PIV1059 = molecular target: T24, PIV1059 (PIV1); assay: BLI, 53C stress
T24 construct: F113G, F114S, A466L, S473L, A480L, G134A, Q92L
Procedure: as §3, §4

PIV1060 = molecular target: T25, PIV1060 (PIV1); assay: BLI, 53C stress
T25 construct: Q92L, G134A, A466L, S473L, A480L
Procedure: as §3, §4

PIV1061 = molecular target: T26, PIV1061 (PIV1); assay: BLI, 53C stress
T26 construct: Q92L, G134A, A466L, S473L
Procedure: as §3, §4

PIV1062 = molecular target: T27, PIV1062 (PIV1); assay: BLI, 53C stress
T27 construct: F113G, F114S, A466L, S473L, A480L, Q92A, G134L
Procedure: as §3, §4

PIV1063 = molecular target: T28, PIV1063 (PIV1); assay: BLI, 53C stress
T28 construct: A466L, S473L, A480L, Q92A, G134L
Procedure: as §3, §4

PIV1064 = molecular target: T29, PIV1064 (PIV1); assay: BLI, 53C stress
T29 construct: F113G, F114S, Q92C-G134C, A466I, S473I, A480L
Procedure: as §3, §4

PIV1065 = molecular target: T30, PIV1065 (PIV1); assay: BLI, 53C stress
T30 construct: F113G, F114S, Q92C-G134C, A466I, S473I
Procedure: as §3, §4

PIV1066 = molecular target: T31, PIV1066 (PIV1); assay: BLI, 53C stress
T31 construct: A466I, S473I, A480L, Q92L, G134A
Procedure: as §3, §4

PIV1067 = molecular target: T32, PIV1067 (PIV1); assay: BLI, 53C stress
T32 construct: F113G, F114S, Q92C-G134C, A466I, S473I, A480I
Procedure: as §3, §4

PIV1068 = molecular target: T33, PIV1068 (PIV1); assay: BLI, 53C stress
T33 construct: A466I, S473I, A480I, Q92L, G134A
Procedure: as §3, §4

B1: hMPV-2 mAb (antibody, V domains shown)
VH: QVQLQQSGAEVKKPGASVKVSCKASGYTFTSYGISWVRQAPGQGLEWMGWISGYNGNTNYAQTFQGTFTMTTDTSTSTAYMELRRLRSGDTAVYYCARDRYYASGSYNGMDVWGQGTTVTVSS
VL: QSALTQPPSASGAPGQRVTVSCSGSSSNVGSSSVYWYQQLPGTAPKLLIYRNNQRPSGVPDRFSGSKSGTSASLAISGLRSEDEADYYCAAWDDSLSGWVFGGGTKLTVLG
notes: human IgG1
Response Shift (hMPV133): 0.677 nm | Response Shift (hMPV135): 0.73 nm | Response Shift (hMPV B F WT Control): 0.418 nm | Response Shift (hMPV101): 0.716 nm | Response Shift (hMPV102): 0.572 nm | Response Shift (hMPV103): 0.588 nm | Response Shift (hMPV104): 0.336 nm | Response Shift (hMPV105): 0.785 nm | Response Shift (hMPV106): 0.828 nm | Response Shift (hMPV107): 0.846 nm | Response Shift (hMPV108): 0.802 nm

B2: PIV1-8 mAb (antibody, V domains shown)
VH: QVQLVQSGAEVKKPGSSVKVSCEASGGTFSNYVISWVRQAPGQGLEWMGGIIPVFATAKYAQKFQGRVTIIADQSTNTAYLELSSLRSDDTAVYFCASVDSGGTWWDAFAIWGQGTMVTVSS
VL: QAVVTQPRSVSGSPGQAVTISCTGTSSDVGGYNYVSWYQHHPGKAPKLIIYDVTKRPSGVPDRFSGSKSGNTASLTISGLQTEYEADYYCCSYAGSYTLVFGGGTKLTVLG
notes: human IgG1; also called hPIV1-8 mAb; hPIV1-8
Response Shift [1]: 0.646 nm | Response Shift (PIV1047): 0.862 nm | Response Shift (PIV1048): 0.783 nm | Response Shift (PIV1049): 0.883 nm | Response Shift (PIV1050): 0.907 nm | Response Shift (PIV1051): 0.744 nm | Response Shift (PIV1052): -0.026 nm | Response Shift (PIV1053): 0.901 nm | Response Shift (PIV1054): 0.826 nm | Response Shift (PIV1055): 0.787 nm | Response Shift (PIV1056): 0.805 nm | Response Shift (PIV1057): 0.808 nm | Response Shift (PIV1058): 0.704 nm | Response Shift (PIV1059): 0.903 nm | Response Shift (PIV1060): 0.671 nm | Response Shift (PIV1061): 0.648 nm | Response Shift (PIV1062): 0.714 nm | Response Shift (PIV1063): -0.036 nm | Response Shift (PIV1064): 0.897 nm | Response Shift (PIV1065): 0.816 nm | Response Shift (PIV1066): 0.722 nm | Response Shift (PIV1067): 0.896 nm | Response Shift (PIV1068): 0.65 nm
